# Assay results taken from patent US20100266502A1 (Chugai, published 2010).
# B1: HC-15 (antibody, V domains shown)
# VH: EVQLQQSGPELVKPGASVKISCKASGYSFTGYYMHWVKQSPEKRLEWIGEINPRTGITTYNQKFKAKATLTVDKSSSTAYMQLKSLTSEDSAVYYCARVGSSGPFTYWGQGTLVTVSA
# VL: DIVMTQSPSSLSVSAGDKVTMSCKSSQSLLNSRNQKNYLAWYQQKPWQPPKLLIYGASTRESGVPDRFTGSGSGTDFTLTISSVQAEDLAVYYCQNDYSYPFTFGTGTKLEIK
# B2: HE-39 (antibody, V domains shown)
# VH: EVQLQQSGPELMKPGASVKMSCKASGYIFTDYYMNWVKQSHGKSLEWIGRVNPNNGGTSYSQKFKDKATLTVDKSLNTAYMQVNSLTSEDSAVYYCARIYYGGSDWGQGTTLTVSS
# VL: EIVMTQTPLSLSVTIGQPASISCKSSQSLLYTTGKTYLNWLQQRPGQAPKHLMYQVSKLVPGIPDRFSGSGSETDFTLKISRVEAEDLGVYYCLQGTYYPHTFGSGTKLEIK
# Legend:
# [1] = biological target: T1, active-form HB-EGF protein (R&D Systems, Inc., 259-HE) (human, UniProt Q99075 63-148); experiment: competition ELISA: inhibition of HB-EGF (50 ng/mL) binding to immobilised EGFR-Fc
# T1 construct: also called sHB-EGF; secreted-form HB-EGF
# [2] = biological target: T1, active-form HB-EGF protein (R&D …); experiment: ELISA, purified antibody on plate coated with 1 µg/mL HB-EGF; given as ED50
# [3] = biological target: T1, active-form HB-EGF protein (R&D …); experiment: cell-based or functional assay
# [4] = biological target: T1, active-form HB-EGF protein (R&D …); experiment: cell-based or functional assay; remark: listed apart in the source
# [5] = biological target: T1, active-form HB-EGF protein (R&D …); experiment: ELISA, purified antibody on plate coated with 1 µg/mL HB-EGF; printed as ED50 (antibody concentration that gave 50% binding)
# T1 sequence (Q99075 63-148 limits assumed): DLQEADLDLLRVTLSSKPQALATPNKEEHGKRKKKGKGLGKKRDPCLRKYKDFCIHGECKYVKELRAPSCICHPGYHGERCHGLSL
Binder,EC50 [1],EC50 [2],"Inhibition of HB-EGF-dependent growth (EC50, nmol/L) [3]","EC50 (nM), growth-inhibiting effect on EGFR_Ba/F3 cells [4]",EC50 [5]
B1,0.52 nM,0.65 nM,2.06 nmol/L,3.8 nM,0.2 nM
B2,0.86 nM,0.016 nM,0.83 nmol/L,–,–
